In patent US20230136301A1, “Corticosteriod Reduction in Treatment with Anti-CD38 Antibody” (Janssen Biotech, Inc., priority 2021, published 2023):
Where “and” joins values, the source holds several entries; their conditions need not be identical. Equal values may be shown once.

System: patients with RRMM
Test: PAVO Part 3: treatment-emergent adverse events with DARA SC and corticosteroid tapering
Experimental: The PAVO (MMY1004) trial is an open-label, nonrandomized, multicenter, phase lb study consisting of 3 parts. […] Safety was assessed, with an emphasis on IRRs, while corticosteroids were reduced and discontinued.
The purpose of Part 3 was to evaluate the safety of daratumumab 1,800 mg SC delivery without predose and postdose corticosteroids after a 3-week, 2-week, and 1-week tapering schedule to assess the safety of corticosteroid-free SC daratumumab administration. A total of 42 participants were treated. […] In conjunction, patients also received a 3-week, 2-week, or 1-week steroid tapering schedule (FIG. 2). The 3-week tapering schedule (corticosteroid-free by Cycle 1 Day 22) consisted of methylprednisolone (MP) given orally (PO)/IV pre-dose (Cycle 1 Day 1, 100 mg; Cycle 1 Day 8, 60 mg; Cycle 1 Day 15, 30 mg) and PO post-dose (Cycle 1 Day 1, 20 mg for 2 days; Cycle 1 Day 8, 20 mg for 1 day; Cycle 1 Day 15, 20 mg for 1 day). The 2-week tapering schedule (corticosteroid-free by Cycle 1 Day 15) consisted of MP given PO/IV pre-dose (Cycle 1 Day 1, 100 mg; Cycle 1 Day 8, 60 mg) and PO post-dose (Cycle 1 Day 1, 20 mg for 2 days; Cycle 1 Day 8, 20 mg for 1 day). The 1-week tapering schedule (corticosteroid-free by Cycle 1 Day 8) consisted of dexamethasone 20 mg administered IV pre-dose on Cycle 1 Day 1, without post-dose administration.
The 3-week, 2-week and 1-week steroid tapering schedules were assessed by “3+3” design, followed by cohort expansion to approximately 15 patients (3-week and 2-week tapering cohorts) or 12 patients (1-week tapering cohort). The dose-limiting toxicity (DLT) assessment period in the 3-week, 2-week and 1-week tapering cohorts were Cycle 1 Day 1 through Cycle 2 Day 4, Cycle 1 Day 1 through Cycle 1 Day 25, and Cycle 1 Day 1 through Cycle 1 Day 11, respectively. […] Grade 3 or 4 IRRs only qualified as DLTs if they occurred during corticosteroid reduction or discontinuation (not during Cycle 1 Day 1). For the 3-week and 2-week groups, IRRs reported at Cycle 1 Day 1 were not considered DLTs, as corticosteroids had not yet been reduced or discontinued. Up to approximately 12 patients could be enrolled in the 1-week tapering schedule to assess safety, including IRRs.
Safety assessments included treatment-emergent adverse events (TEAEs), serious adverse events, and IRRs. All toxicities were graded according to the National Cancer Institute's Common Terminology for the Classification of Adverse Events (NCI-CTCAE) Version 4.03 (National Cancer Institute. Common Terminology Criteria for Adverse Events (CTCAE): Version 4.03.).
The safety and efficacy populations, defined as all patients who received ≥1 dose of study drug, was the primary population for analysis. […] The pharmacokinetic-evaluable population was defined as all patients who received ≥1 dose of study drug and provided ≥1 post-infusion pharmacokinetic sample. The immunogenicity population was defined as all patients who received ≥1 dose of study drug and provided ≥1 post-infusion immunogenicity sample.

Substance: DARA SC: 1,800 mg daratumumab co-formulated with 30,000 U rHuPH20 (2,000 U/mL, 15 mL), manual subcutaneous injection
- Grade 5 TEAEs (2-week taper, general physical health deterioration): 1 (6.7%) n (%)
- Grade ≥3 TEAEs, participants (3-week taper): 60%
- Nausea, participants (3-week taper): 53%
- Nervous system disorders (3-week taper): 46.7%
- Patients who died due to complications from DLBCL (3-week taper): One
- TEAEs with an outcome of death (3-week taper): No deaths
- Anemia, any grade TEAE (3-week taper n=15): 1 (6.7) n (%) and 1 (6.7%) n (%)
- Anemia, grade ≥3 TEAE (3-week taper n=15): 1 (6.7) n (%) and 1 (6.7%) n (%)
- Any TEAE (3-week taper n=15): 15 (100)^ n (%) and 15 (100.0%) n (%)
- Any grade ≥3 TEAE (3-week taper n=15): 9 (60.0) n (%) and 9 (60.0%) n (%)
- Arthralgia, any grade TEAE (3-week taper n=15): 3 (20.0) n (%) and 3 (20.0%) n (%)
- Asthenia, any grade TEAE (3-week taper n=15): 1 (6.7) n (%) and 1 (6.7%) n (%)
- Back pain, TEAE (3-week taper n=15): 1 (6.7%) n (%)
- Blood and lymphatic system disorders (SOC), TEAE (3-week taper n=15): 4 (26.7%) n (%)
- Blood and lymphatic system disorders (SOC), grade 3 or higher TEAE (3-week taper n=15): 3 (20.0%) n (%)
- Bone pain, TEAE (3-week taper n=15): 2 (13.3%) n (%)
- Bone pain, grade ≥3 TEAE (3-week taper n=15): 1 (6.7) n (%) and 1 (6.7%) n (%)
- Chills, TEAE (3-week taper n=15): 2 (13.3%) n (%)
- Constipation, TEAE (3-week taper n=15): 2 (13.3%) n (%)
- Cough, any grade TEAE (3-week taper n=15): 3 (20.0) n (%) and 3 (20.0%) n (%)
- Decreased appetite, TEAE (3-week taper n=15): 3 (20.0%) n (%)
- Diarrhea, any grade TEAE (3-week taper n=15): 4 (26.7) n (%) and 4 (26.7%) n (%)
- Dizziness, any grade TEAE (3-week taper n=15): 4 (26.7) n (%) and 4 (26.7%) n (%)
- Erythema, any grade TEAE (3-week taper n=15): 2 (13.3) n (%) and 2 (13.3%) n (%)
- Fatigue, any grade TEAE (3-week taper n=15): 4 (26.7) n (%) and 4 (26.7%) n (%)
- Gastrointestinal disorders (SOC), TEAE (3-week taper n=15): 9 (60.0%) n (%)
- General disorders and administration site conditions (SOC), TEAE (3-week taper n=15): 11 (73.3%) n (%)
- Headache, any grade TEAE (3-week taper n=15): 5 (33.3) n (%) and 5 (33.3%) n (%)
- Lymphopenia, grade ≥3 TEAE (3-week taper n=15): 2 (13.3%) n (%) and 2 (13.3) n (%)
- Metabolism and nutrition disorders (SOC), TEAE (3-week taper n=15): 7 (46.7%) n (%)
- Muscle spasms, any grade TEAE (3-week taper n=15): 1 (6.7) n (%)
- Musculoskeletal and connective tissue disorders (SOC), TEAE (3-week taper n=15): 6 (40.0%) n (%)
- Musculoskeletal and connective tissue disorders (SOC), grade 3 or higher TEAE (3-week taper n=15): 2 (13.3%) n (%)
- Nasopharyngitis, any grade TEAE (3-week taper n=15): 5 (33.3) n (%) and 5 (33.3%) n (%)
- Nausea, any grade TEAE (3-week taper n=15): 8 (53.5%) n (%) and 8 (53.3%) n (%) and 8 (53.3) n (%)
- Nervous system disorders (SOC), TEAE (3-week taper n=15): 7 (46.7%) n (%)
- Neutropenia, grade ≥3 TEAE (3-week taper n=15): 0 n (%)
- Oropharyngeal pain, TEAE (3-week taper n=15): 2 (13.3%) n (%)
- Pain in extremity, any grade TEAE (3-week taper n=15): 4 (26.7) n (%) and 4 (26.7%) n (%)
- Patients with a serious TEAE (3-week taper n=15): 6 (40.0%) n (%)
- Peripheral edema, any grade TEAE (3-week taper n=15): 1 (6.7) n (%) and 1 (6.7%) n (%)
- Pyrexia, any grade TEAE (3-week taper n=15): 4 (26.7) n (%) and 4 (26.7%) n (%)
- Respiratory, thoracic and mediastinal disorders (SOC), TEAE (3-week taper n=15): 6 (40.0%) n (%)
- Skin and subcutaneous tissue disorders (SOC), TEAE (3-week taper n=15): 6 (40.0%) n (%)
- Vomiting, TEAE (3-week taper n=15): 2 (13.3%) n (%)
- Anemia, TEAE of Grade >3 (PAVO Part 3): 9.5%
- Serious TEAEs in SOC General disorders and administration site conditions (PAVO Part 3): 4.8%
- TEAEs in SOC General disorders and administration site conditions (PAVO Part 3): 71.4%
- Anemia, any grade TEAE (Total n=42): 7 (16.7) n (%) and 7 (16.7%) n (%)
- Anemia, grade ≥3 TEAE (Total n=42): 4 (9.5) n (%) and 4 (9.5%) n (%)
- Any grade ≥3 TEAE (Total n=42): 21 (50.0%) n (%) and 21 (50.0) n (%)
- Arthralgia, any grade TEAE (Total n=42): 10 (23.8) n (%) and 10 (23.8%) n (%)
- Asthenia, any grade TEAE (Total n=42): 7 (16.7) n (%) and 7 (16.7%) n (%)
- Back pain, TEAE (Total n=42): 6 (14.3%) n (%)
- Blood and lymphatic system disorders (SOC), TEAE (Total n=42): 11 (26.2%) n (%)
- Blood and lymphatic system disorders (SOC), grade 3 or higher TEAE (Total n=42): 8 (19.0%) n (%)
- Bone pain, TEAE (Total n=42): 7 (16.7%) n (%)
- Bone pain, grade ≥3 TEAE (Total n=42): 3 (7.1) n (%) and 3 (7.1%) n (%)
- Chills, TEAE (Total n=42): 5 (11.9%) n (%)
- Constipation, TEAE (Total n=42): 7 (16.7%) n (%)
- Cough, any grade TEAE (Total n=42): 7 (16.7) n (%) and 7 (16.7%) n (%)
- Decreased appetite, TEAE (Total n=42): 5 (11.9%) n (%)
- Diarrhea, any grade TEAE (Total n=42): 11 (26.2) n (%) and 11 (26.2%) n (%)
- Dizziness, any grade TEAE (Total n=42): 5 (11.9) n (%) and 5 (11.9%) n (%)
- Erythema, any grade TEAE (Total n=42): 6 (14.3) n (%) and 6 (14.3%) n (%)
- Fatigue, any grade TEAE (Total n=42): 9 (21.4) n (%) and 9 (21.4%) n (%)
- Gastrointestinal disorders (SOC), TEAE (Total n=42): 24 (57.1%) n (%)
- General disorders and administration site conditions (SOC), TEAE (Total n=42): 30 (71.4%) n (%)
- Headache, any grade TEAE (Total n=42): 7 (16.7) n (%) and 7 (16.7%) n (%)
- Lymphopenia, grade ≥3 TEAE (Total n=42): 3 (7.1) n (%) and 3 (7.1%) n (%)
- Metabolism and nutrition disorders (SOC), TEAE (Total n=42): 12 (28.6%) n (%)
- Muscle spasms, any grade TEAE (Total n=42): 4 (9.5) n (%)
- Musculoskeletal and connective tissue disorders (SOC), TEAE (Total n=42): 23 (54.8%) n (%)
- Musculoskeletal and connective tissue disorders (SOC), grade 3 or higher TEAE (Total n=42): 4 (9.5%) n (%)
- Nasopharyngitis, any grade TEAE (Total n=42): 11 (26.2) n (%) and 11 (26.2%) n (%)
- Nausea, any grade TEAE (Total n=42): 13 (31.0) n (%) and 13 (31.0%) n (%)
- Nervous system disorders (SOC), TEAE (Total n=42): 13 (31.0%) n (%)
- Neutropenia, grade ≥3 TEAE (Total n=42): 3 (7.1) n (%) and 3 (7.1%) n (%)
- Oropharyngeal pain, TEAE (Total n=42): 5 (11.9%) n (%)
- Pain in extremity, any grade TEAE (Total n=42): 8 (19.0) n (%) and 8 (19.0%) n (%)
- Patients who died during the study (Total n=42): 6 patients
- Patients with a grade 3/4 TEAE (Total n=42): 18 (42.9%) n (%)
- Patients with a serious TEAE (Total n=42): 16 (38.1%) n (%)
- Peripheral edema, any grade TEAE (Total n=42): 5 (11.9) n (%) and 5 (11.9%) n (%)
- Pyrexia, any grade TEAE (Total n=42): 9 (21.4) n (%) and 9 (21.4%) n (%)
- Respiratory, thoracic and mediastinal disorders (SOC), TEAE (Total n=42): 15 (35.7%) n (%)
- Skin and subcutaneous tissue disorders (SOC), TEAE (Total n=42): 11 (26.2%) n (%)
- Vomiting, TEAE (Total n=42): 6 (14.3%) n (%)
- Patients who died due to progressive disease (all cohorts, 1 in each cohort): 3 patients
